This is an account of results in patent US20260274985A1 (MYTHIC THERAPEUTICS, published 2026).

The target of experiment [1] is T1, TROP2 on TROP2-positive NCI-H1975 cells (human, UniProt P09758 27-323).
T1 sequence: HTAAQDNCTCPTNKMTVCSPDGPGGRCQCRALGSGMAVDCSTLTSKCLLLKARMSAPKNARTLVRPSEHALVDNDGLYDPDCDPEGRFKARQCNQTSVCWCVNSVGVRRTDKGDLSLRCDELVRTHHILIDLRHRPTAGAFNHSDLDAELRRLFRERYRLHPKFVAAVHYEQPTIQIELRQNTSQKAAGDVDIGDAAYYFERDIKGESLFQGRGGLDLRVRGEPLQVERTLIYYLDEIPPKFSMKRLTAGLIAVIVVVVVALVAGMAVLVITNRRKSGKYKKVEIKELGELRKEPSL
As to the kind of experiment: cell-based or functional assay.

Experiment [2] deals with T2, Human TROP2 Protein, His Tag (Acro Biosystems) (human, UniProt P09758 27-274).
T2 construct: not shown: His tag
T2 sequence (looked up): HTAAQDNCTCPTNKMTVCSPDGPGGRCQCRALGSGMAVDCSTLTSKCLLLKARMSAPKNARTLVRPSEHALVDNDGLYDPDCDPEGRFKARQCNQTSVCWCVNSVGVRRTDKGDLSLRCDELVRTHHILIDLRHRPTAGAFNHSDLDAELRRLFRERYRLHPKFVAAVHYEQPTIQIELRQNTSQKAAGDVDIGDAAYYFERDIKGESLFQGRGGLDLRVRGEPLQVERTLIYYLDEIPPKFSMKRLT
As to the kind of experiment: Octet BLI: IgG supernatant on anti-human Fc sensor, 50 nM TROP2-His at pH 7.4, dissociation at pH 7.4 or 5.4; Octet Binding Result 1=pH dependent. As to the method:
(§1) After allowing for four days of protein expression, cell culture supernatants were collected, quantified by SDS-PAGE analysis (DNS), and the pH dependence of the variant was evaluated using biolayer interferometry (BLI) on an Octet RED 96e instrument. Briefly, cell culture supernatants were diluted based on qualitative expression level of the variant determined by visual examination of SDS-PAGE gels, 5 μL of cell culture supernatant was diluted into 195 μL of 1×PBST, pH 7.4 for high expressors, 25 μL of cell culture supernatant was diluted into 175 μL of 1×PBST, pH 7.4 for medium expressors and 100 μL of cell culture supernatant was diluted into 100 μL of 1×PBST, pH 7.4 for low expressors for loading onto the sensor tips. The resulting diluted supernatants were then captured on an anti-human Fc sensor (Forte Bio). A baseline was established using 1×PBST (50 mM Potassium Phosphate Buffer+150 mM NaCl+0.05% Tween 20) pH 7.4, and the sensor was associated with 50 nM of TROP2 (Human TROP2 Protein, His Tag, Acro Biosystems) in 1×PBST pH 7.4 for 120 sec to generate an association curve. In the dissociation phase, the antibody-antigen complex on the sensor was exposed to 1×PBST pH 7.4 or pH 5.4, for 300 sec. Association and dissociation phase curves were examined for the starting ABPC antibody (with no substitutions) and each corresponding antibody variant at pH 5.4 and pH 7.4 to inform on two criteria: a) enhanced dissociation (i.e., higher koff values) at pH 5.4 due to histidine or alanine substitution compared to the starting ABPC, (with no substitutions), and b) reduced dissociation at pH 7.4 (i.e., lower koff values) compared to pH 5.4 in the antibody variant itself and with the starting ABPC (with no substitutions). […] It was also noted that while some mutations obliterated TROP2 binding, others were tolerated with little or n change in TROP2 binding kinetics.

The target of experiment [3] is T3, Human TROP2 Protein, His Tag (human, UniProt P09758 27-274).
T3 construct: Bought protein; also called TACSTD2; not shown: His tag
T3 sequence (looked up): T2 sequence (looked up)
As to the kind of experiment: BLI (Octet).

The target of experiment [4] is T2, Human TROP2 Protein, His Tag (Acro …). Briefly: BLI (Octet) [2/2]. (In general: Biolayer interferometry detects binding as a change in optical thickness at a sensor tip.)
Experiment [5] concerns the target T4, Human TROP2 Protein, His Tag (Acro Biosystems) (human, UniProt P09758 27-274).
T4 construct: Bought protein; also called TACSTD2; not shown: His tag
T4 sequence: T2 sequence (looked up)
As to the kind of experiment: BLI (Octet).

Experiment [6] concerns the target T2, Human TROP2 Protein, His Tag (Acro …). As to the kind of experiment: Octet BLI: IgG supernatant on anti-human Fc sensor, 50 nM TROP2-His at pH 7.4; Octet Binding Result 3=No binding. The procedure:
as §1

Numbering of substitutions follows the chain as printed.

B1: MYT12375 (antibody, human IgG1, V domains shown)
VH: QVQLQQSGSELKKPGASVKVSCKASGYTFTNYGMNWVKQAPGQGLKWMGWINTYTGEPTYTDDFKGRFAFSLDTSVSTAYLQISSLKADDTAVYFCARGGFGSSYWYFDVWGQGSLVTVSS
VL: DIQLTQSPSSLSASVGDRVSITCKASQDVSIAVAWYQQKPGKAPKLLIYSHSHRYTGVPDRFSGSGSGTDFTLTISSLQPEDFAVYYCQQHYHTPLTFGAGTKVEIK
Take B1: the “cytotoxicity on TROP2-positive NCI-H1975 cells (antibody complexed to secondary antibody-MMAF, cell titer glow assay)” value (“cytotoxicity” for short) in experiment [1] is ~27 % greater cytotoxicity compared to WT datopotamab.

B2: MYT11682 (antibody, human IgG1, V domains shown)
VH: QVQLVQSGAEVKKPGASVKVSCKASGYTFTTAGMQWVRQAPGQGLEWMGWINTHSGVPKYAEDFKGRVTISADTSTSTAYLQLSSLKSEDTAVYYCARSGFGSSYWYFDVWGQGTLVTVSS
VL: B1 VL with L4M, S20T, V29H, I31T, H51A, H53Y, D60S, H93I, A100Q, V104L
Consider B2, for which the “cytotoxicity” value in experiment [1] is ~20 % greater cytotoxicity compared to WT datopotamab.

B3: MYT13274 (antibody, V domains shown)
VH: B2 VH with F101H
VL: B1 VL with L4M, S20T, I31T, H51A, H53Y, D60S, A100Q, V104L
notes: Full-length IgG from Expi293 supernatant; also called datopotamab heavy chain and light chain pairing variant
As to B3, the binding result in experiment [2] was “binds”.

B4: MYT13273 (antibody, V domains shown)
VH: B2 VH with R98H
VL: B1 VL with L4M, S20T, I31T, H51A, H53Y, D60S, A100Q, V104L
notes: as for B3
Take B4: the binding result in experiment [2] was “binds”.

B5: MYT13275 (antibody, V domains shown)
VH: B2 VH with S104H
VL: B1 VL with L4M, S20T, I31T, H51A, H53Y, D60S, A100Q, V104L
notes: as for B3
As to B5, the binding result in experiment [2] is “binds”.

B6: MYT11668 (antibody, V domains shown)
VH: B2 VH with G102H
VL: B1 VL with L4M, S20T, I31T, H51A, H53Y, D60S, H93I, A100Q, V104L
notes: IgG from supernatant; also called datopotamab variant H3 06
Regarding B6, the binding result in experiment [3] is listed as “no binding (tested: 50 nM)”.

B7: MYT13267 (antibody, V domains shown)
VH: B2 VH with S104H
VL: B1 VL with L4M, S20T, I31T, H51A, D60S, H93I, A100Q, V104L
notes: as for B3
Regarding B7, the binding result in experiment [2] is “binds”.

B8: MYT11672 (antibody, V domains shown)
VH: B2 VH with W106H
VL: B1 VL with L4M, S20T, I31T, H51A, H53Y, D60S, H93I, A100Q, V104L
notes: IgG from supernatant; also called datopotamab variant H3 10
Take B8: the binding result in experiment [3] is on record as “no binding (tested: 50 nM)”.

B9: MYT13266 (antibody, V domains shown)
VH: B2 VH with F101H
VL: B1 VL with L4M, S20T, I31T, H51A, D60S, H93I, A100Q, V104L
notes: as for B3
In the case of B9, the binding result in experiment [2] is given as “binds”.

B10: MYT11669 (antibody, V domains shown)
VH: B2 VH with S103H
VL: B1 VL with L4M, S20T, I31T, H51A, H53Y, D60S, H93I, A100Q, V104L
notes: IgG from supernatant; also called datopotamab variant H3 07
As for B10, the binding result in experiment [3] is reported as “no binding (tested: 50 nM)”.

B11: MYT11766 (antibody, human IgG1, V domains shown)
VH: QVQLQESGPGLVKPSETLSLTCTVSGGSISSYGVHWIRQPPGKGLEWIGVIWTSGVTDYNSALMGRVTISVDTSKNQFSLKLSSVTAADTAVYYCARDGDYDRYTMDYWGQGTLVTVSS
VL: DIVMTQSPDSLAVSLGERATINCRASKSVSTSGYSYMHWYQQKPGQPPKLLIYLASNLESGVPDRFSGSGSGTDFTLTISSLQAEDVAVYYCHHSRELPYTFGQGTKLEIK
As to B11, the “cytotoxicity” value in experiment [1] is ~30 % greater cytotoxicity compared to WT datopotamab.

B12: MYT12440 (antibody, human IgG1, V domains shown)
VH: B11 VH
VL: B11 VL with E59H
With B12, the “cytotoxicity” value in experiment [1] is ~30 % greater cytotoxicity compared to WT datopotamab.

B13: MYT11770 (antibody, human IgG1, V domains shown)
VH: B11 VH
VL: B11 VL with H93Q, E97H
On to B13, for which the “cytotoxicity” value in experiment [1] is ~30 % greater cytotoxicity compared to WT datopotamab.

B14: MYT13438 (antibody, V domains shown)
VH: B11 VH with I51H
VL: B11 VL with E59H, H93Q, H94A
notes: Full-length IgG from Expi293 supernatant; also called hu7E6SVG heavy chain and light chain pairing variant
On to B14, for which the binding result in experiment [4] was “no binding (tested: 50 nM)”.

B15: MYT13442 (antibody, V domains shown)
VH: B11 VH with M106H
VL: B11 VL with E59H, H93Q, H94A
notes: as for B14
In the case of B15, the binding result in experiment [4] is on record as “no binding (tested: 50 nM)”.

B16: MYT12433 (hu7E6SVG variant, HCV substitutions at 33, 56, 106) (antibody, V domains shown)
VH: B11 VH with G33H, V56H, M106H
VL: B11 VL with H93Q
With B16, the binding result in experiment [5] was “no binding (tested: 50 nM)”.

B17: MYT13439 (antibody, V domains shown)
VH: B11 VH with V56H
VL: B11 VL with E59H, H93Q, H94A
notes: as for B14
With B17, in experiment [4], the binding result is given as “no binding (tested: 50 nM)”.

B18: MYT13444 (antibody, V domains shown)
VH: B11 VH with V56H
VL: B11 VL with E59H, H93Q, T101H
notes: as for B14
Take B18: the binding result in experiment [4] is recorded as “no binding (tested: 50 nM)”.

B19: MYT12468 (hu7E6SVG variant, LCV substitutions at 60, 94, 101 (Ala at 94)) (antibody, V domains shown)
VH: B11 VH
VL: B11 VL with S60H, H93Q, H94A, T101H
notes: Full IgG in Expi293 supernatant
As for B19, the binding result in experiment [5] is “no binding (tested: 50 nM)”.

B20: MYT12431 (hu7E6SVG variant, HCV substitutions at 33, 51, 106) (antibody, V domains shown)
VH: B11 VH with G33H, I51H, M106H
VL: B11 VL with H93Q
On to B20, for which the binding result in experiment [5] is on record as “no binding (tested: 50 nM)”.

B21: MYT12473 (hu7E6SVG variant, LCV substitutions at 94, 97, 101 (Ala at 94)) (antibody, V domains shown)
VH: B11 VH
VL: B11 VL with H93Q, H94A, E97H, T101H
notes: as for B19
On to B21, for which the binding result in experiment [5] is “no binding (tested: 50 nM)”.

B22: MYT12434 (hu7E6SVG variant, HCV substitutions at 33, 103, 106) (antibody, V domains shown)
VH: B11 VH with G33H, R103H, M106H
VL: B11 VL with H93Q
B22: the binding result in experiment [5] is recorded as “no binding (tested: 50 nM)”.

B23: MYT13306 (antibody, V domains shown)
VH: B11 VH with I51H
VL: B11 VL with E59H, H93Q, H94A
notes: as for B14
For the molecule B23, the binding result in experiment [6] is listed as “no binding (tested: 50 nM)”.

B24: MYT13447 (antibody, V domains shown)
VH: B11 VH with M106H
VL: B11 VL with E59H, H93Q, T101H
notes: as for B14
As for B24, the binding result in experiment [4] is on record as “no binding (tested: 50 nM)”.
